We go through two molecules from PMC8635976, “Ca^2+/CaM binding to CaMKI promotes IMA-3 importin binding and nuclear translocation in sensory neurons to control behavioral adaptation” (eLife, 2021).

Settings in all cases: both partners purified
The target of assay [1] is T1, IMA-3-His6 (IMA-3 importin-α) (C. elegans, UniProt Q19969 1-514, labeled using the RED-tris-NTA His tag protein labeling kit).
T1 construct: IMA-3, importin-α of C. elegans; also called HisTag::IMA-3; source: E. coli BL21 (DE3), purified (Ni-NTA, desalting spin column)
T1 sequence (looked up): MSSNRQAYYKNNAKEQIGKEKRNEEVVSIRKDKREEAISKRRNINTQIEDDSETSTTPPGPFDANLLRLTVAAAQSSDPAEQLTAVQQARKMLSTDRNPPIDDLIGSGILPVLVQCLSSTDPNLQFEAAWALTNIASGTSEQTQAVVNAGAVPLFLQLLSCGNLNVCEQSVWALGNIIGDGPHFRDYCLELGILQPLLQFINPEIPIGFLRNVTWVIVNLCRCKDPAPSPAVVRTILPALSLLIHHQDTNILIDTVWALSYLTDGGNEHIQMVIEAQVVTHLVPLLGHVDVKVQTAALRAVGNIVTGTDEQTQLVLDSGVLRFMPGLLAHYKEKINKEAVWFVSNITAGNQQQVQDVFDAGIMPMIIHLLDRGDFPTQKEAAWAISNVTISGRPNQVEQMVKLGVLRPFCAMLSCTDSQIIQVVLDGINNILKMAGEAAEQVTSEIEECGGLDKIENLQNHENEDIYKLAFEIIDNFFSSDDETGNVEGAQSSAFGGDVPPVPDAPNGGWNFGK
Nature of the assay: MST; Monolith NT.115; RED-tris-NTA labeled IMA-3-His6 at 100 nM, serial dilution of unlabeled CMK-1 in 1x PBS with 0.05% Tween 20; 40% laser power; with 2 mM CaCl2 and 8 µM CaM; triplicates.

Assay [2] addresses T1, IMA-3-His6 (IMA-3 importin-α). The assay is described as follows: MST; Monolith NT.115; RED-tris-NTA labeled IMA-3-His6 at 100 nM, serial dilution of unlabeled CMK-1 in 1x PBS with 0.05% Tween 20; 40% laser power; no Ca2+, no CaM; triplicates.
Assay [3] shares this target. Nature of the assay: MST; Monolith NT.115; RED-tris-NTA labeled IMA-3-His6 at 100 nM, serial dilution of unlabeled CMK-1 in 1x PBS with 0.05% Tween 20; 40% laser power; with 2 mM Ca2+, no CaM.

Substitutions are numbered along the chain they refer to. Names and notes keep the numbering of the source.

B1: CMK-1(wt), calcium/calmodulin-dependent protein kinase-1 (enzyme, C. elegans, UniProt Q9TXJ0 1-348, looked up)
chain: MPLFKRRDGSGPAPNATIREKYDFRDVLGTGAFSKVFLAESKSDAGQMYAVKCIDKKALKGKEESLENEIKVLRKLRHNNIVQLFDTYDEKQFVYLVMELVTGGELFDRIVAKGSYTEQDASNLIRQVLEAVGFMHDNGVVHRDLKPENLLYYNQDEDSKIMISDFGLSKTEDSGVMATACGTPGYVAPEVLQQKPYGKAVDVWSIGVIAYILLCGYPPFYDESDANLFAQIIKGEYEFDAPYWDQISDSAKDFITHLMCCDPEARFTCQDALSHPWISGNTAYTHDIHGTVAVHLKKSLAKRNWKKAYNAAAAIRQLQMLRLSSNSNRLQKQASQQQPEPPTPAFHA
notes: CMK-1 of C. elegans, ortholog of mammalian CaMKI/IV; cmk-1 cds inserted in pDK2409 (plasmid dg922 [cmk-1(wt)::GST-TEV]); TEV cleavage removes the GST tag to recover untagged CMK-1; also called CaMKI; source: E. coli BL21 (DE3), purified (Glutathione beads, eluted by TEV cleavage)
B1: the figures for the Kd in assay [1], in assay [2] and in assay [3] were 450 nM, 1540 nM and 1140 nM, respectively.

B2: CMK-1(K71A/R74Q/R77S) (enzyme, C. elegans, UniProt Q9TXJ0 1-348, looked up)
chain: B1 chain with K71A, R74Q, R77S
notes: CMK-1 of C. elegans with three point mutations in the NLS 71-78; plasmid dg929 [cmk-1(K71A/R74Q/R77S)::GST-TEV] made by site-directed mutagenesis from dg922; TEV cleavage removes the GST tag; also called NLS71-78 mutant CMK-1; CMK-1 (K71A/R74Q/R77S) triple mutant; source: E. coli BL21 (DE3), purified (Glutathione beads, eluted by TEV cleavage)
With B2, the dissociation constant Kd (usually the free concentration of one partner at which half of the binding sites on the other are occupied at equilibrium, for simple one-to-one binding) was 1000 nM in assay [1] and 1220 nM in assay [2].
